In patent US20120052007A1, “PERIPHERAL BLOOD SPARC BINDING ANTIBODIES AND USES THEREOF” (ABRAXIS BIOSCIENCE, LLC, priority 2010, published 2012):

What was measured:
MDA-MB-231 (breast) = experiment: MDA-MB-231 breast cancer xenograft; type: in vivo, mice; conditions: MDA-MB-231 xenograft, nab-paclitaxel 10 mg/kg, P<0.001 (FIG. 24C)
Method: (§1) Control animals for each xenograft were administered PBS. […] Animal weights were measured twice weekly.
(§2) These findings were further confirmed in the MDA-MB-231 breast cancer xenografts (FIG. 24C) and PC3 prostate cancer xenografts (FIG. 24D). […] In these experiments, nab-paclitaxel was dosed sub-optimally at 10 mg/kg, daily for five cycles.

[1] = test system: endothelial cell tubule formation; experiment: TCS Cellworks AngioKit tubule formation assay; type: cell-based, human; conditions: 11 days
From the text: Next, the effect of SPARC on tubule formation was examined using the TCS cellworks human Angiokit model kit (TCS-ZHA-1000, TCS Cell Works Buckingham, UK). In this assay, the endothelial cells initially form small islands within the culture matrix. They subsequently begin to proliferate and then enter a migratory phase during which they move through the matrix to form threadlike tubule structures. These gradually join up (by 9-11 days) to form a network of anastomosing tubules which closely resembles a capillary bed.
24-well pre-seeded endothelial cell tissue culture plates containing early stage co-cultures (day 2-3) were used according to manufacturer's recommendations (TCS Cell Works, Buckingham, UK). The cultures were incubated at 37° C./5% CO2 for 11 days. Media on the cultures was changed with added test and control compounds on days 4, 7 and 9 after initial treatment, followed by fixation with 70% ethanol on day 11. Fixed cultures were subsequently stained as follows: Primary rabbit anti-CD31 antibody (Thermo Scientific) was diluted to a final concentration of 2 μg/mL in PBS/1% BSA blocking buffer. Then, 0.5 mL of diluted anti-CD31 antibody was added to each well and incubated for 1 h at 37° C. […]
The number and lengths of tubules formed were then evaluated by light microscopy. […] Total vessel number, total tubule area and the number of branch points can be similarly determined.

PC3 (prostate) = experiment: PC3 prostate cancer xenograft; type: in vivo, mice; conditions: nab-paclitaxel 10 mg/kg, P<0.001 (FIG. 24D)
Method: as §1, §2

HT29 (colon) = test system: HT29 (colon)
From the text: Female and male athymic NCr-nu mice between 5 and 6 weeks of age weighing approximately 20 g were purchased from Harlan, Inc. (Madison, Wis., USA). Human cancer cells HT29 (colon), PC3 (prostate), and MDA-MB-231 (breast) were propagated in cell culture and implanted subcutaneously at one million cells per flank of female (for MDA-MB-231 and HT29) or male (for PC3 prostate tumor) nude mice and allowed to grow to approximately 60-100 mm^3 before treatment was initiated. Treatments included 5-fluorouracil (5FU), docetaxel (Taxotere®), albumin-bound paclitaxel (nab-paclitaxel), nab-paclitaxel plus suntinib malate (Sutent®), or nab-paclitaxel plus bevacizumab (Avastin®) with or without exogenously administered SPARC). Control animals for each xenograft were administered PBS. The longest (length) and shortest (width) tumor diameters (millimeter) and tumor depth were measured twice weekly. The tumor volume was calculated with the formula: tumor volume (mm3)=width×length×depth. Tumor growth inhibition (TGI) was defined as the percentage of tumor volume reduction compared with the control group at the time of euthanasia for the control animals. Tumor doubling time was defined as the time required for the tumor volume to double […]. Animal weights were measured twice weekly. Statistical analysis was performed using the Prism program (GraphPad, San Diego, Calif., USA). Analysis of variance (ANOVA) statistic was used to compare tumor growth curves.

[2] = test system: human umbilical cord vein endothelial cells (HUVEC); experiment: HUVEC bead sprouting angiogenesis assay; type: cell-based; conditions: 5 days
Method: First, the effect of SPARC on sprouting was studied in an in vitro angiogenesis model system that was prepared using human umbilical cord vein endothelial cells (HUVEC) as described by Nakatsu et al (Methods Enzymol. 443:65-82 (2008)). Low passage HUVEC grown in M199 media supplemented with 10% FBS (Gibco, Carlsbad, Calif.) were switched to EGM-2 media (Clonetics, Walkersville, Md.) 2 days before beading. Cytodex 3 microcarrier beads (Amersham Pharmacia Biotech, Piscataway, N.J.) were hydrated and washed with PBS (pH 7.4). 1×10^6 HUVEC cells were incubated with 2500 hydrated and sterilized beads in EGM-2 medium for 4 hours at 37° C. for coating. The coated beads were next embedded in 2 mg/mL fibrinogen in PBS with 0.15 units/mL aprotinin at a concentration of 500 beads/mL. Next, 0.625 units/mL thrombin was added and 0.5 mL of the mixture was added to each well of a 24 well plate. The solution was allowed to clot at RT for 5 minutes and 37° C. for another 15 min. After clotting 20,000 lung fibroblast cells in EGM-2 media were seeded in each well. Either 1, 10 or 100 μg/mL BioI SPARC protein in PBS, or PBS without protein was added to the growth medium and cultures were maintained for 5 days until sprouting was evaluated by light microscopy. The number of tubes formed/bead and the morphology of sprouting HUVEC cells in the cultures were determined using image pro software (Media Cybernetics, Bethesda, Md.).

[3] = test system: recombinant human SPARC protein; experiment: Tube Formation Assay (AngioKit) with SPARC and SPARC binding antibodies; type: cell-based; conditions: 10 μg/mL recombinant human SPARC in the culture media
Method: This assay was performed using the TCS Cellworks human AngioKit model kit (TCS-ZHA-1000, TCS Cell Works, Buckingham, UK) as described in Example 10 above. The media contained 10 μg/mL recombinant human SPARC protein. The media also contained 300 μg/mL of one of the above prepared mouse SPARC binding monoclonal antibodies (Imm12, Imm14, mHTI), or a control (mouse IgG).
To examine the effect of SPARC on tubule formation, and interference with that function by SPARC binding monoclonal antibodies, the number of tubules formed and their length was evaluated by light microscopy.

MDA-MB-435-Luc+ = MDA-MB-435-Luc+ orthotopic metastatic model; type: in vivo, mice
Method: MDA-MB-435-Luc+ were implanted orthotopic in mammary fat pad (MFP) at 4×10^6 cells in 50% Matrigel and allowed to reach average tumor volume of 180 mm^3 before treatment. Treatments were: 2 cycles of 10 mg/kg nab-paclitaxel, 4 mg/kg SPARC, and bevacizumab biweekly. At appropriate time interval, the following organs were harvested for quantitation of metastasis: Proximal lymph nodes, contralateral lymph nodes, lungs, liver and brain. Statistical tests used included t-test and Mann Whitney-U.
Mice were monitored 2-3 times a week and tumor growth was recorded. Mice were sorted when tumor volumes reached 180 mm^3, and the first cycle of treatment was administered. Seven rest days were given between the first and second cycle. Bevacizumab and SPARC were continually administered during the rest period. Weight was measured periodically throughout the study to assess toxic effects from the therapy.
The following dosing schedules were followed: Control (Group 1); 10 mg/kg nab-paclitaxel daily for 3 to 5 cycles (Group 2); 4 mg/kg soluble SPARC (Bio 1) injected i.v. biweekly (Group 3); and 10 mg/kg nab-paclitaxel daily for two to five cycles and 4 mg/kg SPARC-biweekly (Group 4).
Total metastatic burden was also calculated. It is presented as measured luciferase activity in tissue extracts expressed in RLU normalized per mg protein. All contralateral lymph nodes were negative for all groups. There were a few incidences of metastasis occurred in the proximal lymph node, liver and brain. […] Liver metastasis occurred somewhat frequently in the both control and SPARC groups (present in 3 mice in each group). There was also one control mouse that had brain metastasis.

B1: SPARC: recombinant wild-type human SPARC (BIO1), exogenously administered (protein)
chain: APQQEALPDETEVVEETVAEVTEVSVGANPVQVEVGEFDDGAEETEEEVVAENPCQNHHCKHGKVCELDENNTPMCVCQDPTSCPAPIGEFEKVCSNDNKTFDSSCHFFATKCTLEGTKKGHKLHLDYIGPCKYIPPCLDSELTEFPLRMRDWLKNVLVTLYERDEDNNLLTEKQKLRVKKIHENEKRLEAGDHPVELLARDFEKNYNMYIFPVHWQFGQLDQHPIDGYLSHTELAPLRAPLIPMEHCTTRFFETCDLDNDKYIALDEWAGCFGIKQKDIDKDLVI
effect of SPARC administration on antitumor effects of nab-paclitaxel and suntinib (MDA-MB-231 (breast)): significantly inhibited | angiogenic activity (tubule formation) ([1]; high concentration of SPARC (100 μg/mL)): significantly inhibited angiogenesis | angiogenic activity (tubule formation) ([1]; low concentrations of SPARC (1 and 10 μg/mL)): stimulate angiogenesis | effect of SPARC administration on antitumor effects of nab-paclitaxel and bevacizumab (PC3 (prostate)): significantly inhibited | impact of SPARC treatment on the nab-paclitaxel/bevacizumab combination (HT29 (colon); HT29 xenograft (FIG. 24B)): minimal negative impact | Tumor growth inhibition (TGI) (HT29 (colon); HT29 xenograft, versus control group at euthanasia of control animals): 35.4% | seeded HUVEC/beads that had developed sprouts ([2]; 1 μg/mL SPARC): less than 50% | average sprouts/bead ([2]; 10 μg/mL SPARC): 0.9 sprouts/bead | average sprouts/bead ([2]; 100 μg/mL SPARC): 1.9 sprouts/bead | tubule formation [3]: formation of numerous long tubules | tumor growth rate (MDA-MB-435-Luc+; MDA-MB-435-Luc+ mammary fat pad tumors): 23.16±4.38 mm3/day | average tumor volume (MDA-MB-435-Luc+; in 63 days): 1765 mm3 | lung metastatic burden, average RLU/mg total protein (MDA-MB-435-Luc+; luciferase activity in lung tissue extracts): 31630±10820 RLU/mg total protein | mice positive for lung metastasis (MDA-MB-435-Luc+; mouse, in vivo): 9 of 9 | mice with liver metastasis (MDA-MB-435-Luc+; mouse, in vivo): 3 mice | Tumor Volume on day 56 (MDA-MB-435-Luc+; mouse, in vivo, in mm³ (unit assumed)): 1524 | % Inhibition (MDA-MB-435-Luc+; tumor volume on day 56): 35%
